Measurements published in US20130040894A1, “INHIBITION OR ACTIVATION OF SERINE/THREONINE ULK3 KINASE ACTIVITY” (TALLINN UNIVERSITY OF TECHNOLOGY, priority 2009, published 2013).
Where a chain is given by its changes, count along the chain named. In names and notes the source's numbering stands.

T1: His-tagged GLI1 fragment, amino acids 426-754
T1 chain: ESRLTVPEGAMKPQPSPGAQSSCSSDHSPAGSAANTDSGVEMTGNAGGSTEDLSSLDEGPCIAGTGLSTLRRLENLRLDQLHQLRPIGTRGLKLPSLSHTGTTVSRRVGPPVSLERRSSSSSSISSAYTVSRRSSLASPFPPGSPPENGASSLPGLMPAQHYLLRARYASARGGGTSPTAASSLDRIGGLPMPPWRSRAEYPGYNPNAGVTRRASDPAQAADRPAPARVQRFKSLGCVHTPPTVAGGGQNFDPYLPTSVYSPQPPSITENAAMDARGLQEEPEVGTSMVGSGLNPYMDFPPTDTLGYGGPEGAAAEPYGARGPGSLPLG

B1: FLAG-tagged wild-type ULK3 (human serine/threonine kinase ULK3) (protein)
chain: MAGPGWGPPRLDGFILTERLGSGTYATVYKAYAKKDTREVVAIKCVAKKSLNKASVENLLTEIEILKGIRHPHIVQLKDFQWDSDNIYLIMEFCAGGDLSRFIHTRRILPEKVARVFMQQLASALQFLHERNISHLDLKPQNILLSSLEKPHLKLADFGFAQHMSPWDEKHVLRGSPLYMAPEMVCQRQYDARVDLWSMGVILYEALFGQPPFASRSFSELEEKIRSNRVIELPLRPLLSRDCRDLLQRLLERDPSRRISFQDFFAHPWVDLEHMPSGESLGRATALVVQAVKKDQEGDSAAALSLYCKALDFFVPALHYEVDAQRKEAIKAKVGQYVSRAEELKAIVSSSNQALLRQGTSARDLLREMARDKPRLLAALEVASAAMAKEEAAGGEQDALDLYQHSLGELLLLLAAEPPGRRRELLHTEVQNLMARAEYLKEQVKMRESRWEADTLDKEGLSESVRSSCTLQ
B2: ULK3(K139R): kinase-deficient ULK3 mutant with Lysine at position 139 mutated to Arginine (SEQ ID NO:7) (protein)
chain: B1 chain with K139R
modifications: MUTAGEN (1)..(472) mutated ULK3 protein ULK3 (K139R)
B3: ULK3: human serine/threonine kinase, 472 amino acids (SEQ ID NO: 1), overexpressed from cloned cDNA or immunopurified FLAG-tagged (protein, listed as Homo sapiens)
chain: B1 chain
modifications: PEPTIDE (1)..(472) ULK3

Columns and labels:
[1] = target: T1, His-tagged GLI1 fragment, amino acids …
[2] = system: GLI1 in nuclear extracts of Cos1 cells; experiment: Cell fractionation analysis with WB; assay type: cell-based, primate; details: cotransfected with FLAG-tagged GLI1 in Cos1 cells, lamin A/C loading control
Protocol: Cos1 cells were transfected with FLAG-tagged expression constructs for GLI1 combined with ULK3, ULK3(K139R) or empty vector in ratio 1:1 on 10 cm plates. Nuclear and whole cell extracts (NE and WCE, respectively) were prepared as described in [36]. All extracts were normalized for protein amounts measured using […] kit (Thermo Scientific). A total 10 μg of protein were separated by SDS-PAGE and transferred to the PVDF membrane (Millipore, Billerica Mass., USA). The membrane was segmented according to the expected size of the detected proteins. Obtained strips were probed with the appropriate antibodies.
WB was performed using a non-blocking technique as described in [37]. Mouse monoclonal M2-anti-FLAG antibody (Sigma-Aldrich) was used for detection of FLAG-tagged GLI1, GLI2, GLI3, ULK3, ULK3(K44R) and ULK3(K139R) by WB in dilution 1:2000. Lamin A/C was detected with mouse monoclonal anti-Lamin A/C antibody (Upstate, Billerica Mass., USA) diluted 1:1000. Mouse monoclonal anti-His antibody (Novagen, Darmstadt, Germany) diluted 1:1500 was used for detection of bacterially expressed and purified GLI1 fragements. […]
To confirm the data from the immunofluorescent staining, we performed cell fractionation analysis. […] Expression of lamin A/C was analyzed as a loading control. ULK3 and ULK3(K139R) were detected mostly in WCEs.

ULK3 = experiment: In vitro kinase assay, autophosphorylation; assay type: biochemical, human; details: FLAG-tagged protein immunopurified from HEK293 cells, γ-P32-ATP
Protocol: HEK293 cells were transfected with 13.5 μg of FLAG-tagged constructs expressed GLI1, GLI2, GLI3, ULK3, ULK3(K44R), ULK3(K139R) or FLAG-CMV-4 empty vector on 10 cm plates. The cells were lysed with 0.5 ml of Lysis Buffer (50 mM Tris HCl, pH 7.4, 150 mM NaCl, 1 mM EDTA, 1% Triton X-100) containing protease inhibitor cocktail (PIC) (Roche Applied Science). The lysates were centrifuged for 15 min at 4° C. and 15000 g, and the supernatants were used for immunoprecipitation (IP). IP was performed using anti-FLAG-M2 affinity gel (Sigma-Aldrich) in batch format according to the manufacture's instructions. Immune complexes were washed three times with 500 μl of Kinase Buffer (KB) (50 mM HEPES, pH 7.4, 20 mM MgCl2, 25 μM ATP) and resuspended in 12.5 μl of KB. One fifth of the immuno-complexes was subjected to WB and the rest was used for the kinase assay.
Kinase reactions were carried out in KB in a total volume of 20 μl of in the presence of 1 μCi of [γ-^32P]ATP per reaction. We used 1 μl of the immunoprecipitated ULK3, ULK3(K44R) or ULK3(K139R) mixed with 5 μl of the GLI-M2 immunocomplexes or 5 μl of bacterially expressed and purified His-GLI1 fragments. Kinase reactions were held at 30° C. for 30 min and terminated by adding of 5 μl of 4× Laemmli Sample Buffer. Proteins were resolved by SDS-PAGE. The gel was dried at 80° C. for 2 h, and autoradiography was performed using Bio-Rad Personal Molecular Imager FX.
To test if ULK3 has an autophosphorylation activity, we expressed FLAG-tagged wild-type ULK3 and mutants ULK3(K44R) and ULK3(K139R) in HEK293 cells, immunopurified and subjected to in vitro kinase assay in the presence of γ-P^32-ATP.

Molecule	in vitro kinase assay, phosphorylation of a His-tagged GLI1 fragment [1]	amount of GLI1 in nuclear extracts [2]	autophosphorylation activity (ULK3)
B1	Central part of GLI1 (amino acids 426-754) was not phosphorylated by ULK3		
B2		significantly lower amounts of GLI1	almost completely absent
B3		retained most of the GLI1 in the nuclei	strong autophosphorylation activity
